Results reported in the supplement of paper PMC6757056.
± gives the standard deviation of the averaged measurements.

B1: library; a variant is named by its letters at N, in order (parent)
chain: GCUGUCACCGGUGCUUGGUACGUUAUAUUCAGCCGGUCUGAUGAGUCUNNNNNNAGACGAAACAGC

Assays:
(6R,S)-folinic acid [1] = variants of: B1; assay: normalized RNA/DNA level without ligand (relative to sTRSVctl = 100) (log10 (% of sTRSVctl)); HEK293T overexpressing SLC46A1; higher = less ribozyme self-cleavage, higher mRNA level; settings: without (6R,S)-folinic acid; ligand present: no
In short: (§1)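 For each 6-well well, 4 µg of library plasmid encoding mCherry-linked ribozyme switches, or eGFP-linked ones in some ligand experiments, was transfected into HEK293T. Any ligand was added 1 h before transfection, and RNA was extracted with EDTA 72 h after it, then reverse-transcribed, amplified, barcoded and sequenced. RNA level was obtained by dividing RNA reads by DNA reads, normalizing to a spiked-in non-cleaving sequence or to the top sequences, then scaling and log-transforming. The top set was 25 sequences, scaling was ×100 with log10, and ≥100 DNA reads were required.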

(6R,S)-folinic acid [2] = variants of: B1; assay: normalized RNA/DNA level with ligand (relative to sTRSVctl = 100) (log10 (% of sTRSVctl)); HEK293T overexpressing SLC46A1; ligand concentration (+) RNA-Seq: 6 mM; higher = less ribozyme self-cleavage, higher mRNA level; settings: with (6R,S)-folinic acid; ligand present: yes
In short: as §1

| Variant | normalized RNA/DNA level without ligand (log10) ((6R,S)-folinic acid [1]) | normalized RNA/DNA level with ligand (log10) ((6R,S)-folinic acid [2]) |
| --- | --- | --- |
| CGGUAC | 2.0071 ± 0.0016 | 1.992 ± 0.0076 |
| UGGCUU | 2.021 ± 0.00062 | 2.043 ± 0.0081 |
| UGGCUG | 2.066 ± 0.0012 | 2.09 ± 0.023 |
| UGGCUC | 2.07 ± 0.024 | 2.04 ± 0.023 |
| UGGCUA | 2.03 ± 0.013 | 2.05 ± 0.028 |
| UGCGGC | 1.998 ± 0.006 | 1.98 ± 0.045 |
| UGCGGU | 1.976 ± 0.014 | 2.03 ± 0.025 |
| UGCGUU | 1.972 ± 0.018 | 2 ± 0.051 |
| UGCGUA | 1.904 ± 0.015 | 1.98 ± 0.035 |
| UGCGUC | 2.09 ± 0.0072 | 2.04 ± 0.044 |
| GGGGAC | 1.995 ± 0.013 | 2.029 ± 0.012 |
| GGGGAG | 1.9915 ± 0.00084 | 2.04 ± 0.043 |
| GGGGAU | 2.002 ± 0.0074 | 2.03 ± 0.05 |
| GGGACC | 2.049 ± 0.0006 | 2.04 ± 0.024 |
| GGGACG | 2.039 ± 0.01 | 2.06 ± 0.051 |
| UGGCGU | 1.99 ± 0.031 | 2.03 ± 0.05 |
| UGGCGG | 1.8196 ± 0.0011 | 1.99 ± 0.056 |
| UGGCGA | 1.98 ± 0.0056 | 2.067 ± 0.0097 |
| UGGCGC | 2.08 ± 0.027 | 2.05 ± 0.055 |
| CGGAUC | 2.085 ± 0.011 | 2.034 ± 0.003 |
| CGGAUU | 2.031 ± 0.015 | 2.02 ± 0.045 |
| AGGCGA | 2.0336 ± 0.00079 | 2.06 ± 0.023 |
| AGGCGU | 2.02 ± 0.025 | 2.048 ± 0.0022 |
| AGGCGC | 2.057 ± 0.015 | 2.03 ± 0.026 |

| Variant | normalized RNA/DNA level without ligand (log10) ((6R,S)-folinic acid [1]) | normalized RNA/DNA level with ligand (log10) ((6R,S)-folinic acid [2]) |
| --- | --- | --- |
| AGGCGG | 2.0398 ± 0.0017 | 2.044 ± 0.01 |
| AGCGGG | 2.004 ± 0.016 | 2.055 ± 0.019 |
| AGCGGC | 2.104 ± 0.0038 | 2.05 ± 0.039 |
| CGCGUG | 1.963 ± 0.0059 | 2 ± 0.027 |
| CGCGUA | 1.993 ± 0.017 | 2.006 ± 0.0037 |
| CGCGUU | 2.094 ± 0.014 | 2.07 ± 0.03 |
| CGCGUC | 2.071 ± 0.0094 | 2.06 ± 0.036 |
| GGGCCG | 2.091 ± 0.018 | 2.08 ± 0.047 |
| GGGCCU | 2.098 ± 0.0088 | 2.08 ± 0.036 |
| GGGCCA | 2.126 ± 0.019 | 2.09 ± 0.041 |
| GGGCCC | 2.102 ± 0.0043 | 2.08 ± 0.039 |
| AGGUAU | 2.009 ± 0.0096 | 2.04 ± 0.052 |
| AGGUAC | 1.982 ± 0.0027 | 1.995 ± 0.0077 |
| AGGUAG | 1.912 ± 0.0057 | 2 ± 0.077 |
| AGGUAA | 1.95 ± 0.024 | 1.98 ± 0.02 |
| AGCUGU | 2.039 ± 0.012 | 2.032 ± 0.016 |
| AGCUGA | 2.0496 ± 0.0016 | 2.028 ± 0.014 |
| AGCUGC | 2.038 ± 0.014 | 2.05 ± 0.022 |
| AGCUGG | 2.05 ± 0.0052 | 2.06 ± 0.031 |
| GGGAGA | 2.021 ± 0.0092 | 2.05 ± 0.043 |
| UGGACU | 2.006 ± 0.0056 | 2.01 ± 0.023 |
| CGGAGC | 1.994 ± 0.0049 | 2 ± 0.032 |
| CGGAGA | 1.997 ± 0.017 | 2.03 ± 0.042 |
| CGGAGG | 1.83 ± 0.02 | 1.994 ± 0.01 |

| Variant | normalized RNA/DNA level without ligand (log10) ((6R,S)-folinic acid [1]) | normalized RNA/DNA level with ligand (log10) ((6R,S)-folinic acid [2]) |
| --- | --- | --- |
| CGGAGU | 2.019 ± 0.017 | 2.025 ± 0.012 |
| UGGCAA | 1.97 ± 0.024 | 2.01 ± 0.033 |
| UGGCAU | 1.965 ± 0.014 | 2.01 ± 0.021 |
| UGGCAC | 2.041 ± 0.016 | 2.04 ± 0.042 |
| AGCUCG | 1.99 ± 0.024 | 1.998 ± 0.0042 |
| AGCUCU | 2.02 ± 0.039 | 2.055 ± 0.0097 |
| AGCUCA | 2.07 ± 0.026 | 2.01 ± 0.04 |
| AGCUCC | 2.095 ± 0.0069 | 2.04 ± 0.042 |
| GGCUGC | 2.07 ± 0.0054 | 2.05 ± 0.021 |
| GGCUGA | 2.094 ± 0.014 | 2.08 ± 0.052 |
| GGCUGU | 2.067 ± 0.016 | 2.066 ± 0.019 |
| GGCUGG | 2.064 ± 0.0042 | 2.05 ± 0.046 |
| GGCUCA | 2.073 ± 0.011 | 2.01 ± 0.033 |
| GGCUCG | 2.067 ± 0.014 | 2.03 ± 0.042 |
| GGCUCU | 2.087 ± 0.0098 | 2.05 ± 0.038 |
| GGCUCC | 2.0314 ± 0.0019 | 2.02 ± 0.046 |
| AGGGAU | 1.949 ± 0.0057 | 1.98 ± 0.031 |
| AGGGAA | 1.965 ± 0.0039 | 2.01 ± 0.025 |
| AGGCAG | 1.965 ± 0.0036 | 1.99 ± 0.053 |
| AGGAUG | 1.92 ± 0.031 | 2.037 ± 0.019 |
| AGGAUU | 2.024 ± 0.017 | 2.05 ± 0.028 |
| AGGAUC | 2.059 ± 0.012 | 2.014 ± 0.013 |
| AGGGGC | 2.047 ± 0.0056 | 2.04 ± 0.053 |
| AGGGGG | 1.9815 ± 0.00032 | 2.05 ± 0.064 |

| Variant | normalized RNA/DNA level without ligand (log10) ((6R,S)-folinic acid [1]) | normalized RNA/DNA level with ligand (log10) ((6R,S)-folinic acid [2]) |
| --- | --- | --- |
| AGGGGU | 1.98 ± 0.025 | 2.02 ± 0.039 |
| AGGGGA | 2.001 ± 0.0065 | 2.04 ± 0.058 |
| GGGAUA | 2 ± 0.028 | 2.03 ± 0.022 |
| GGGAUU | 2.0271 ± 0.0004 | 2.04 ± 0.047 |
| GGGAUC | 2.037 ± 0.0086 | 2.04 ± 0.027 |
| CGCUAU | 1.981 ± 0.0029 | 2 ± 0.024 |
| CGCUAG | 2.007 ± 0.0038 | 2.025 ± 0.011 |
| CGCUAA | 1.97 ± 0.019 | 1.99 ± 0.055 |
| CGCUAC | 2.0081 ± 0.001 | 2.03 ± 0.048 |
| GGCGGG | 2.1126 ± 0.00086 | 2.08 ± 0.028 |
| GGCGGC | 2.012 ± 0.018 | 2.014 ± 0.013 |
| GGCGGU | 2.06 ± 0.026 | 2.03 ± 0.037 |
| CGGCUG | 2.0746 ± 0.002 | 2.04 ± 0.027 |
| CGGCUA | 2.11 ± 0.027 | 2.067 ± 0.011 |
| CGGCUU | 2.04 ± 0.04 | 2.02 ± 0.022 |
| GGGUCA | 2.078 ± 0.0065 | 2.09 ± 0.053 |
| CGGCCC | 2.09 ± 0.035 | 2.04 ± 0.032 |
| CGGCCG | 2.038 ± 0.015 | 2.03 ± 0.038 |
| CGGCCU | 2.0767 ± 0.00028 | 2.06 ± 0.068 |
| CGGCCA | 2.111 ± 0.021 | 2.058 ± 0.0046 |
| CGGGCU | 2.09 ± 0.021 | 2.06 ± 0.03 |
| CGGGCG | 1.993 ± 0.005 | 2.04 ± 0.043 |
| CGGGCA | 2.059 ± 0.0067 | 2.04 ± 0.0044 |
| CGGGCC | 2.072 ± 0.0092 | 2.035 ± 0.019 |

| Variant | normalized RNA/DNA level without ligand (log10) ((6R,S)-folinic acid [1]) | normalized RNA/DNA level with ligand (log10) ((6R,S)-folinic acid [2]) |
| --- | --- | --- |
| CGCUGU | 2.03 ± 0.038 | 2 ± 0.02 |
| CGCUGG | 1.974 ± 0.0042 | 2.016 ± 0.0049 |
| CGCUGA | 2.075 ± 0.003 | 2.05 ± 0.03 |
| AGGACG | 1.962 ± 0.0089 | 2.032 ± 0.014 |
| AGGACC | 2.029 ± 0.0033 | 1.99 ± 0.043 |
| AGGACA | 1.989 ± 0.0041 | 2.02 ± 0.038 |
| AGGACU | 1.993 ± 0.0073 | 2.009 ± 0.017 |
| CGGGUC | 2.078 ± 0.0029 | 2.06 ± 0.038 |
| CGGGUG | 1.976 ± 0.0081 | 2.01 ± 0.047 |
| CGGGUU | 2 ± 0.024 | 2 ± 0.051 |
| UGCUAC | 2.021 ± 0.0079 | 2.02 ± 0.071 |
| UGCUAU | 1.994 ± 0.0055 | 2.05 ± 0.03 |
| UGGAAU | 1.869 ± 0.0092 | 2 ± 0.024 |
| UGGAAC | 1.921 ± 0.0075 | 2 ± 0.035 |
| UGGAAA | 1.919 ± 0.0043 | 1.98 ± 0.028 |
| CGGGAG | 1.932 ± 0.0051 | 2 ± 0.023 |
| AGCGUG | 1.92 ± 0.023 | 2.02 ± 0.03 |
| AGCGUA | 1.973 ± 0.0096 | 2 ± 0.028 |
| AGCGUU | 2 ± 0.021 | 2.015 ± 0.0096 |
| AGCGUC | 2.083 ± 0.0033 | 2.06 ± 0.037 |
